The source of these data is patent US20060029947A1.

The assay addresses Bacillus anthracis protective antigen (PA) (Bacillus anthracis) (UniProt P13423).

Sequence of Bacillus anthracis protective antigen (PA) (Bacillus anthracis) (P13423 30-764 limits assumed): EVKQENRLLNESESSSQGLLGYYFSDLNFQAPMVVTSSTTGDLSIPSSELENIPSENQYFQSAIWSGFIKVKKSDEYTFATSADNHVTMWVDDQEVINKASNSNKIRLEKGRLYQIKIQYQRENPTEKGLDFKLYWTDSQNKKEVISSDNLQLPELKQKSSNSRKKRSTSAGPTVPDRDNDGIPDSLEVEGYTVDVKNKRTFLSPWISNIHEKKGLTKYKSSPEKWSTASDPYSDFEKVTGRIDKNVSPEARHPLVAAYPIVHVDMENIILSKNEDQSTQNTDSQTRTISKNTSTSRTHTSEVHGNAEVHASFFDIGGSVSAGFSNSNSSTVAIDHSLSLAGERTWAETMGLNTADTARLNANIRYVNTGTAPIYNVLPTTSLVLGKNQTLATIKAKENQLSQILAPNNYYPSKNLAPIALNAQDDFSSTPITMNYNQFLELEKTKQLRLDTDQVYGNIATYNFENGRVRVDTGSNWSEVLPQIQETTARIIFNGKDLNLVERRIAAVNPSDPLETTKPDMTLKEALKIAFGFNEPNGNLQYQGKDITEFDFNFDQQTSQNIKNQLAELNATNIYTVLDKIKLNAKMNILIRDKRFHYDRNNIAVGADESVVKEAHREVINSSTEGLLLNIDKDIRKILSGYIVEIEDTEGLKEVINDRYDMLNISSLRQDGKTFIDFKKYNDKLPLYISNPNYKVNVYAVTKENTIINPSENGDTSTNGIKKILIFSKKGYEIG
Sequence of 26-10 scFv-g3p fusion (pAK200) (P69168 268-424): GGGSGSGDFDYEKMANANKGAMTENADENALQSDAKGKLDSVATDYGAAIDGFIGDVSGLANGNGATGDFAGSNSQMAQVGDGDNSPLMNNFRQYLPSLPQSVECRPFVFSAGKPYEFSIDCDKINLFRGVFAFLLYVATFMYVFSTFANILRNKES

As for “26-10 scFv-g3p fusion (pAK200) (from UniProt P69168 268-424)”, the M (mean fluorescence) amounted to 7.25.
